Results on one variant are retold here after publication PMC4316792, “The dehydrogenase region of the NADPH oxidase component Nox2 acts as a protein disulfide isomerase (PDI) resembling PDIA3 with a role in the binding of the activator protein p67^phox” (Frontiers in Chemistry, 2015).

First the molecules themselves.
B1: p67^phox(1–212) [not stated] / Nox2 peptide 24 (357–371) with an intramolecular disulfide bond between C369 and C371 [modified: biotin on the N-terminus; C-terminal amide; intramolecular disulfide bond between C369 and C371; biotin on the … (parent complex)
chain 1: MSLVEAISLWNEGVLAADKKDWKGALDAFSAVQDPHSRICFNIGCMYTILKNMTEAEKAFTRSINRDKHLAVAYFQRGMLYYQTEKYDLAIKDLKEALIQLRGNQLIDYKILGLQFKLFACEVLYNIAFMYAKKEEWKKAEEQLALATSMKSEPRHSKIDKAMECVWKQKLYEPVVIPVGKLFRPNERQVAQLAKKDYLGKATVVASVVDQD
chain 2: SGSGIVGDWTEGLFNACGC

Variants of B1 are the subject of the test. Put plainly: peptide-protein binding assay (surface-attached biotinylated peptide, protein in solution, kinetic TMB oxidation read-out); 10 min kinetic experiment; read off a plot.
As to chain 1 MSLVEAISLWNEGVLAADKKDWKGALDAFSAVQDPHSRISFNIGSMYTILKNMTEAEKAFTRSINRDKHLAVAYFQRGMLYYQTEKYDLAIKDLKEALIQLRGNQLIDYKILGLQFKLFASEVLYNIAFMYAKKEEWKKAEEQLALATSMKSEPRHSKIDKAMESVWKQKLYEPVVIPVGKLFRPNERQVAQLAKKDYLGKATVVASVVDQD [chain 1 C40S, chain 1 C45S, chain 1 C121S, chain 1 C165S], the response is ~12 Absorbance (650 nm) x 1000/min.
